Assay results taken from patent publication US20230203461A1, “BETA-ETHERASES FOR LIGNIN DEPOLYMERISATION” (The University of York, priority 2020, published 2023).

Experiments:
tyrosinase = conditions: literature statement; cited from earlier work
β-etherase = experiment: Phenol oxidase assay (substrate specificity) with β-etherase; assay type: biochemical, P. putredinis NO1; conditions: 1 mM substrate, 50 mM Tris pH 8.5, room temperature
Procedure: Specificity was investigated by incubating 1 mM of each substrate of interest with the enzyme in 100 µL Tris pH 8.5 buffer at room temperature. Activity was determined by monitoring the change in Ultraviolet-Visible absorbance spectra (220 - 750 nm) of aliquots using a NanoDrop 8000 Microvolume UV-Vis spectrophotometer (Thermo Scientific). Scans were performed at regular intervals over 2 h.

[1] = Release of products from rice straw (HPLC); assay type: biochemical; conditions: 16 h, pH 8.5, 30° C.
[2] = Saccharification after β-etherase pretreatment, sugarcane bagasse (HPAEC); assay type: biochemical; conditions: 16 h β-etherase pretreatment, then commercial cellulases
Procedure: (§1) For saccharification reactions, biomass pretreated with β-etherase was incubated with 1.2 µg/mL enzyme cocktail (4:1 Celluclast: novo 188 (Novozymes)) in 50 mM sodium acetate at pH 4.5 and incubated overnight at 37-40° C. with shaking. This was performed alongside a control reaction with buffer only. Solids were removed by centrifugation, and residual protein was precipitated with 80% ethanol. The supernatant, containing mono- and oligosaccharides, was dried with a centrifugal evaporator before samples were resuspended in ultra-pure water and filtered through a 0.2 µm polytetrafluoroethylene (PTFE) filter. Five replicates from each sample were investigated, and carbohydrate composition was analyzed by high-performance anion-exchange chromatography (HPAEC).
High-performance anion-exchange chromatography was used to analyze monosaccharide release after saccharification. Briefly, 5 µL of samples or standards were injected on a CarboPac PA20 3 × 150 mm analytical column via a CarboPac PA20 3×0 mm guard column using Chromeleon 6.8 Chromatography Data Systems software (Dionex). Sugars were separated at a flow rate of 0.4-0.5 mL min^-1 at a temperature of 25° C. as follows: after equilibration of the column with 100% H2O, samples were separated in a linear gradient of 100% H2O to 99%-1% of H2O-0.2 M NaOH for 5 min, then constant for 10 min, followed by a linear gradient to 47.5%-22.5%-30% of H2O-0.2 M NaOH-0.5 M NaOAc/0.1 M NaOH in 7 min and then kept constant for 15 min. After washing the column with 0.2 M NaOH for 8 min it was re-equilibrated with 100% H2O for 10 min before the injection of the next sample. Carbohydrates were detected by ICS-3000 PAD system with an electrochemical gold electrode, identified by comparison with retention times of external standards (arabinose, fucose, galactose, glucose, glucuronic acid, mannose, rhamnose, and xylose) and quantified through the integration of these known standards.

[3] = Release of tricin and lignin units from wheat straw (HPLC); assay type: biochemical; conditions: 16 h, pH 8.5, 30° C.
Procedure: Wheat straw was ground to <1 mm using a cyclone mill (Retsch) and washed several times with 50 mM Tris pH 8 to remove residual surface sugars. […] Reactions were incubated overnight at 30° C. with shaking. Control reactions were performed using wheat straw incubated with boiled β-etherase or with buffer only. Tricin was extracted based upon Karambelkar.^70 Briefly, 1 mL of ethyl acetate was added to 100 µL of the reaction supernatant. This was homogenized before being centrifuged for 5 min at 13,000 rpm. The ethyl acetate layer was transferred into new tubes and evaporated using a centrifugal evaporator at 55° C. before being resuspended in 100 µL 50% H2O, 50% acetonitrile. This was analyzed with a Waters 2996 photodiode array detector Separations Module HPLC system, column used was C18-5 µM preparative column (4.6 × 250 mm, Waters, X-Bridge, Made in Ireland). The mobile phase was 0.1% acetic acid in water (A), and methanol (B) and a linear gradient was used; 95% A (5 min), 70% A (25 min), 0% A (30 min), 95% A (5 min), the flow rate was 1.0 mL/min. After identification through comparisons with authentic standards, based on retention time and UV spectrum, peaks were manually collected and the mass confirmed with mass spectroscopy.

[4] = Release of products from sugarcane bagasse (HPLC); assay type: biochemical; conditions: 16 h, pH 8.5, 30° C.
[5] = 2D HSQC NMR of enzyme lignins from treated wheat; conditions: HSQC volume-integrals, S + G + H = 100% basis; control nearly 12%
Procedure: Enzyme lignins, representing essentially all of the lignin in the sample, were prepared following ball-milling of the cell wall isolate as previously described.(75-77, 78)
2D NMR of enzyme lignins (EL) in 4:1 v/v DMSO-d6:pyridine-d5 were acquired on a Bruker Biospin (Billerica, MA) Avance 700 MHz spectrometer equipped with a 5-mm QCI ^1H/^31P/^13 C/^15 N QCI cryoprobe with inverse geometry (proton coils closest to the sample), as described previously.(76,77) Volume-integration of contours in HSQC plots used TopSpin 4.07 (Mac version) software, and no correction factors were used. The data represent volume-integrals only, and data are presented on an S + G + H = 100% basis (FIG. 17); pCA, and tricin T units are always terminal and are, therefore, likely overestimated.(77) Data assignments here were made by comparison with published data from other samples from our lab, including in the various tricin-related papers.(71-74, 79, 80)

[6] = Saccharification after β-etherase pretreatment, wheat straw (HPAEC); assay type: biochemical; conditions: 16 h β-etherase pretreatment, then commercial cellulases
Procedure: as §1
(§2) High-performance anion-exchange chromatography was used to analyze monosaccharide release after saccharification. Briefly, 5 µL of samples or standards were injected on a CarboPac PA20 3 × 150 mm analytical column via a CarboPac PA20 3×0 mm guard column using Chromeleon 6.8 Chromatography Data Systems software (Dionex). […] Carbohydrates were detected by ICS-3000 PAD system with an electrochemical gold electrode, identified by comparison with retention times of external standards (arabinose, fucose, galactose, glucose, glucuronic acid, mannose, rhamnose, and xylose) and quantified through the integration of these known standards.

[7] = Fluorescence assay for β-etherase (4MU release from GGβ4MU); assay type: biochemical
Procedure: Enzyme activity was measured in 1 mL reaction containing 10 µL 4MU/GGβ4MU (synthetic fluorescent substrate 10 mM) and appropriate concentration of pure protein in 50 mM Tris-HCI, 100 mM NaCl, pH 8.5, 5 mM CuSO4. The reaction was incubated at 30° C. for 1 h. Formation of 4-methylumbelliferone (4MU) was monitored using an RF-1500 fluorometric analyzer. After 0 h and 1 h of incubation 100 µL of the reaction mixture was taken and added to 50 µL of 100 mM glycine-NaOH buffer (pH 10.0). One unit of the enzyme was defined as the amount that released 1 nmol of 4 MU/h from the substrate. Five replicate were taken for each sample, and control reactions of boiled enzyme and wheat straw treated with buffer only were also performed.
The effect of pH and temperature on enzyme activity was investigated by varying the pH of the reaction mixtures using 50 mM Tris-HCI buffer from pH 7.0 to 9.5, 50 mM glycine-NaOH buffer at pH range 9.0 to 10.5 and 50 mM Na2HPO4-NaOH buffer at pH range 10.5 to 12. The optimum temperature of enzyme activity was determined at various temperatures ranging from 20° C. to 70° C. Assays were performed as described in the previous section.

[8] = Saccharification after β-etherase pretreatment, rice straw (HPAEC); assay type: biochemical; conditions: 16 h β-etherase pretreatment, then commercial cellulases
Procedure: as §1, §2

[9] = purification step: Culture filrate
[10] = purification step: Q (anion-exchange)
[11] = purification step: S.E (size-exclusion)

O=C(O)/C=C/c1ccc(O)cc1 [p-coumaric acid]
type of tyrosinase inhibition (tyrosinase): mixed-type inhibition effect

N[C@@H](Cc1ccc(O)cc1)C(=O)O [L-tyrosine]
activity of the β-etherase against the substrate (β-etherase): did not display activity

N[C@@H](Cc1ccc(O)c(O)c1)C(=O)O [L-Dopa, 3,4-dihydroxy-L-phenylalanine]
activity of the β-etherase against the substrate (β-etherase): did not display activity

COc1cc(C(=O)O)ccc1O [Vanillic acid]
activity of the β-etherase against the substrate (β-etherase): showed activity
tyrosinase inhibition (tyrosinase): known to be tyrosinase inhibitors

O=C(O)c1ccc(O)cc1 [4-Hydroxybenzoic acid]
activity of the β-etherase against the substrate (β-etherase): showed activity
tyrosinase inhibition (tyrosinase): known to be tyrosinase inhibitors

COc1cc(-c2cc(=O)c3c(O)cc(O)cc3o2)cc(OC)c1O [Tricin, 5,7-dihydroxy-2-(4-hydroxy-3,5-dimethoxyphenyl)-4H-chromen-4-one]
type of tyrosinase inhibition (tyrosinase): binds non-competitively

O=c1c(O)c(-c2ccc(O)c(O)c2)oc2cc(O)cc(O)c12 [Quercetin]
activity of the β-etherase against the substrate (β-etherase): showed activity
tyrosinase inhibition (tyrosinase): known to be tyrosinase inhibitors

B1: β-etherase: copper-containing extracellular β-etherase of Parascedosporium putredinis NO1 (c2092), independent of NAD+ and glutathione, expressed recombinantly in E. coli (protein, listed as Parascedosporium putredinis)
chain: MPSAKRLLGLLLAATAAVGVAAQEPALTEDDFSIPEIEGGDALAQLAQLAADSSQETALRMAKRGLNSGCSPSQIKVRREWRTLTSAQRKQYIASVKCLQTKPSFFDPNIIPAAKSLFDDFVGVHVFQTGSIHLTATFLTWHRYFVYTYETKLREECGYTGPLPYWEWGLDVNNPNASPVFDGSDTSLSGNGAFFAHEGIQMVQPINGNILKLPPGNGGGCVTKGPFKDMKVHFGTIILPVYGQPILSGVENPIADNERCLKRDLNAGIAKRFTSFLNSTSVILKNNNIEMFQAHLQGDDRYVLNQLGVHGGGHYTIGGDPGGDPFISPGDPAFYLHHAQIDRIYWIWQMLDFKNRQGVHGTATLQNNPPSANVTVEDTIDLSPLAPPVKIKDLMNTVGGSPLCYIYL
product release from rice straw [1]: little difference in product release
increase in arabinose after saccharification vs untreated control [2]: 23 fold
increase in glucose after saccharification vs untreated control [2]: 2 fold
increase in xylose after saccharification vs untreated control [2]: 5 fold
p-coumaric acid, vanillin and p-hydroxybenzaldehyde in reaction supernatant of wheat straw [3]: not enriched
tricin in reaction supernatant of wheat straw vs buffer alone [3]: significantly higher concentration of tricin
p-coumaric acid release from sugarcane bagasse [4]: significantly enriched
tricin released from sugarcane bagasse compared to wheat straw [4]: smaller amount of tricin was released
relative tricin ether level in the lignin after treatment [5]: about 8.5%
increase in glucose release after saccharification [6]: 1.2 fold
temperature of maximum activity ([7]; GGβ4MU assay, 20° C. to 70° C. tested): 60 °C
pH of maximum activity ([7]; GGβ4MU assay, pH 7.0 to 12 tested): 10
Activity (mU) (nmol/mg/hr) [7, 9]: 7500 mU
Specific (U/mg) [7, 9]: 7.32 U/mg
Activity (mU) (nmol/mg/hr) [7, 10]: 2600 mU
Specific (U/mg) [7, 10]: 88 U/mg
Activity (mU) (nmol/mg/hr) [7, 11]: 1950 mU
Specific (U/mg) [7, 11]: 139 U/mg
β-etherase activity (fluorescence released after incubation with GGβ4MU) ([7]; recombinant purified protein from E. coli): confirmed
improvement in saccharification [8]: no improvement in saccharification
